From patent US20110033389A1 (published 2011)

B1: AC8FabTAT (Fab, V domains shown)
VH: QVQLVQSGAEVKKPGSSVKVSCKASGGSFSSYAINWVRQAPGQGLEWMGGLMPIFGTTNYAQKFQDRLTITADVSTSTAYMQLSGLTYEDTAMYYCARVAYMLEPTVTAGGLDVWGQGTTVTVAS
VL: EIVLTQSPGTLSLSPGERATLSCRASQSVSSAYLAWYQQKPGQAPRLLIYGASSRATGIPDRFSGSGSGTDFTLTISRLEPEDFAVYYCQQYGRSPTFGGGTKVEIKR
B2: AC8 Fab (Fab, V domains shown)
VH: QVQLVQSGAEVKKPGSSVKVSCKASGGSFSSYAINWVRQAPGQGLEWMGGLMPIFGTTNYAQKFQDRLTITADVSTSTAYMQLSGLTYEDTAMYYCARVAYMLEPTVTAGGLDVWGQGTTVTVAS
VL: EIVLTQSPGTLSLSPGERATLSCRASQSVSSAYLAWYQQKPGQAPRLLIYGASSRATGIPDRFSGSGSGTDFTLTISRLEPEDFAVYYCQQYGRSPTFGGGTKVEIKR

Legend:
Assay in all cases: cell-based or functional assay
[1] = molecular target: T1, glycoprotein D of Herpes simplex virus, on HSV-1 virus (Herpes simplex virus (HSV-1 virus in …, UniProt A1Z0Q5 26-394))
[2] = molecular target: T1, glycoprotein D of Herpes simplex virus, …; remark: listed apart in the source
[3] = molecular target: T1, glycoprotein D of Herpes simplex virus, …; remark: listed apart in the source

| Binder | ED50 against HSV-1 infection; virus prevention assay (cells pre-treated with antibody, washed, then HSV-1) [1] | Plaque Reduction Rate Percentage (Average plaque number per plate) at 0.2 µg/ml; virus prevention assay (cells pre-treated with antibody, washed, then HSV-1) [2] | Plaque Reduction Rate Percentage (Average plaque number per plate) at 0.6 µg/ml; virus prevention assay (cells pre-treated with antibody, washed, then HSV-1) [2] | Plaque Reduction Rate Percentage (Average plaque number per plate) at 1.9 µg/ml; virus prevention assay (cells pre-treated with antibody, washed, then HSV-1) [2] | Plaque Reduction Rate Percentage (Average plaque number per plate) at 5.6 µg/ml; virus prevention assay (cells pre-treated with antibody, washed, then HSV-1) [2] | Plaque Reduction Rate Percentage (Average plaque number per plate) at 16.7 µg/ml; virus prevention assay (cells pre-treated with antibody, washed, then HSV-1) [2] | Plaque Reduction Rate Percentage (Average plaque number per plate) at 50 µg/ml; virus prevention assay (cells pre-treated with antibody, washed, then HSV-1) [2] | Plaque Reduction Rate Percentage (Average plaque number per plate) at 0.012 µg/ml; HSV-1 neutralization in solution [3] | Plaque Reduction Rate Percentage (Average plaque number per plate) at 0.037 µg/ml; HSV-1 neutralization in solution [3] | Plaque Reduction Rate Percentage (Average plaque number per plate) at 0.11 µg/ml; HSV-1 neutralization in solution [3] | Plaque Reduction Rate Percentage (Average plaque number per plate) at 0.33 µg/ml; HSV-1 neutralization in solution [3] | Plaque Reduction Rate Percentage (Average plaque number per plate) at 1 µg/ml; HSV-1 neutralization in solution [3] | Plaque Reduction Rate Percentage (Average plaque number per plate) at 3 µg/ml; HSV-1 neutralization in solution [3] | ED50; plaque reduction assay, HSV-1 neutralization in solution [1] |
| --- | --- | --- | --- | --- | --- | --- | --- | --- | --- | --- | --- | --- | --- | --- |
| B1 | 27 µg/mL | 0% | 0% | 0% | 13% | 37% | 68% | 0% | 14% | 33% | 77% | 100% | 100% |  |
| B2 |  |  |  |  |  |  |  |  |  |  |  |  |  | ~0.2 µg/mL |
